Assay results as given in CN114437205A (DOMA MEDICINE TECH SUZHOU LIMITED COMPANY, dated 2022).

Biological target: SARS-CoV-2-S2 ECD-his (Acro, S2N-C52H5) (SARS-CoV-2, UniProt P0DTC2 686-1213)
Assay: ELISA

B1: 抗体CT150 (antibody, V domains shown)
VH: QEQLVESGGGVVQPGRSLRLSCAASGFTFSSYAMHWVRQAPGEGLEWVALISYDGDNKYYADSVKGRFTISRDNSKTTLFLQMNSLRAEDTAVYYCARDRGSYFYGVDVWGQGATVTVSS
VL: DIQLTQSPSFLSASVGDRVTITCRASQDINSYLAWYQQKPGKAPKLLIYAASTLQSGVPSRFSGSGSGTEFTLTISSLQPEDFATYYCQQLNSYPIFTFGPGTKVDIK
**Q.** Which EC50 does the source give for B1 here?
**A.** Its EC50 is 8.18 ng/mL.
